{"source": "the nanobody polyreactivity screen of Harvey et al. (2022)", "data": [{"assay": "yeast display, Sf9 membrane polyspecificity reagent, FACS + sequencing; frameworks hold sequencing errors", "method_in_brief": "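Using colony PCR, genes from sorted yeast display clones were amplified, then sequenced on MiSeq at 2 × 250 and filtered by CDR length. The clones had been stained with 10% biotinylated, detergent-solubilized Sf9 membrane reagent for 1 hour at 4 °C and sorted by FACS into low and high (top ~1%) gates on anti-HA and streptavidin fluorescence. Polyreactivity labels come from the gate of origin.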", "values": [{"sequence": "QVQLVESGGGLVQAGGSLRLSCAASGSIFGGYTMGWYRQAPGKERELVAAISRRGGNTYYADSVKGRFTISRDNAKNTVYLQMKSLKPEDTAVYYCAVRWPSARIPVKLDYWGQGTQVTVSS", "polyreactivity (PSR sort gate)": "high polyreactivity"}, {"sequence": "QVQLVESGGGLVQAGGSLRLSCAASGSIFGHYAMGWYRQATGKERELVATISRRGGSTYYADSVKVRFTISRDNAKNTVYLQMNSLKPEDTAVYYCAADSKGSLYGYWGQGTQVTVSS", "polyreactivity (PSR sort gate)": "high polyreactivity"}, {"sequence": "QVQLVESGGGLVQAGGSLRLSCAASGSIFGINAMGWYRQAPGKERELVAAITWSGGSTFYADSVKGRFTISRDNAKNTVYLQMNSLKPEDTAVYYCAASYSRWYWLYTSDYWGQGTQVTVSS", "polyreactivity (PSR sort gate)": "high polyreactivity"}, {"sequence": "QVQLVESGGGLVQAGGSLRLSCAASGSIFGIYAMGWYRQAPGKERELVAAISRSGGRTYYADSVKGRFTISRDNAKNTVYLQMNSLKPEDTAVYYCAARPPGGYLYDYWGQGTQVTVSS", "polyreactivity (PSR sort gate)": "high polyreactivity"}, {"sequence": "QVQLVESGGGLVQAGGSLRLSCAASGSIFGIYAMGWYRQAPGKERELVATITGRGGSTYYADSVKGRFTISRDNAKNTVYLQMNSLKPEDTAVYYCNAGGRSARYFWGGYWGQGTQVTVSS", "polyreactivity (PSR sort gate)": "high polyreactivity"}, {"sequence": "QVQLVESGGGLVQAGGSLRLSCAASGSIFGIYARGWYRQAPGKEREFVATITLGGGNTYYADSVKGRFTISRDYAKNTVYLQMNSLKPEDTAVYYCAARYFGLKRYDDYWGQGTQVTVSS", "polyreactivity (PSR sort gate)": "high polyreactivity"}, {"sequence": "QVQLVESGGGLVQAGGSLRLSCAASGSIFGKNAMGWYRQAPGKERELVAAITWSGGSTYYADSVKGRFTISRDNAKNTVYLQMNSLKPEDTAVYYCNAVRVRVTSHRIRQLDYGYWGQGTQVTVSS", "polyreactivity (PSR sort gate)": "low polyreactivity"}, {"sequence": "QVQLVESGGGLVQAGGSLRLSCAASGSIFGKNAMGWYRQAPGKERELVASITWDGSSTYYADSVKGRFTISRDNAKNTVYLQMNSLKPEDTAVYYCNADYHVQYEYYPYDYWGQGTQVTVSS", "polyreactivity (PSR sort gate)": "low polyreactivity"}, {"sequence": "QVQLVESGGGLVQAGGSLRLSCAASGSIFGKYTMGWYRQAPGKERELVAAITSGGSTNYADSVKGRFTISRDNAKNSVYLQMNSLKPEDTSVYYCAAPGTWIPSSTECGDGYDYWGQGTQVTVSS", "polyreactivity (PSR sort gate)": "low polyreactivity"}, {"sequence": "QVQLVESGGGLVQAGGSLRLSCAASGSIFGLNAMGWYRQAPGKERELVAAISVSGTRTYYADSVKGRFTISRDNAKNTGYLQMNSLKPEDTAVYYCAAYSYSSSFGYRYDYWGQGTQVTVSS", "polyreactivity (PSR sort gate)": "high polyreactivity"}, {"sequence": "QVQLVESGGGLVQAGGSLRLSCAASGSIFGLYAMGWYRPAPGKERELVAAISRTGGSTYYADSVKGRFTLSRDNAKNTVYFQMHSLKPEETAVYYCAAKYQYTQYDYWGQGTQVTVSS", "polyreactivity (PSR sort gate)": "high polyreactivity"}, {"sequence": "QVQLVESGGGLVQAGGSLRLSCAASGSIFGLYAMGWYRQAPGKERELVAAISGSGSRTYYADSVKGRFTISRDNAKNTVYLQMNSLKPEDTAVYYCAADRYWYGVHASIYYYWGQGTQVTVSS", "polyreactivity (PSR sort gate)": "high polyreactivity"}, {"sequence": "QVQLVESGGGLVQAGGSLRLSCAASGSIFGLYGMGWYRPAAGKERELLAAITGRGGSTYYADSVKGRFTISRDNAKITVYLQMNSLKPEDTAVYYCAALRYTFAGRFDYWGQGTQVNVSS", "polyreactivity (PSR sort gate)": "high polyreactivity"}, {"sequence": "QVQLVESGGGLVQAGGSLRLSCAASGSIFGLYTMGWYRQAPGKERELVAAIDSGDSTNYADSVKGRFTISRDNEKNTVYLQMNSLKQEDTAVYYCNALGEYPYYSSFWYESWGQGTQVTVSS", "polyreactivity (PSR sort gate)": "low polyreactivity"}, {"sequence": "QVQLVESGGGLVQAGGSLRLSCAASGSIFGLYTMGWYRQAPGKERELVAAISGGGGSTYYADSVKGRFTISRDNAKNTVYLQMNSLKPEDTAVYYCAADLELSEWYDYWGQGTQVTVSS", "polyreactivity (PSR sort gate)": "low polyreactivity"}, {"sequence": "QVQLVESGGGLVQAGGSLRLSCAASGSIFGNNAMGWYRQAPGKERELVAAISSGGSTNYADSVKGRFTISRDNAKNTVYLQMNSLKPEDTAVYYCATYYFYPSWYLLYGEYNYWGQGTQVTVSS", "polyreactivity (PSR sort gate)": "low polyreactivity"}, {"sequence": "QVQLVESGGGLVQAGGSLRLSCAASGSIFGNNAMGWYRQAPGKERELVAAITSSGGSTYYADSVKGRFTISRDNAKNTVYLQMNSLKPEDTAVYYCATEWSGYTYWFYEWEYGYWGQGTQVTVSS", "polyreactivity (PSR sort gate)": "high polyreactivity"}, {"sequence": "QVQLVESGGGLVQAGGSLRLSCAASGSIFGNNAMGWYRQAPGKERELVAGINYSGGRTYYADSVKGRFTISRDNAKNTVYLQMNSLKPEDTAVYYCAADGHRQVGWWRFEYGYWGQGTQVTVSS", "polyreactivity (PSR sort gate)": "low polyreactivity"}, {"sequence": "QVQLVESGGGLVQAGGSLRLSCAASGSIFGNNAMGWYRQAPGKERELVATISYSGDSTYYADSVKGRFTISRDNAKNTVYLQMNSLKPEDTAVYYCAKQSDWVYKDRAYDYWGQGTQVTVSS", "polyreactivity (PSR sort gate)": "low polyreactivity"}, {"sequence": "QVQLVESGGGLVQAGGSLRLSCAASGSIFGPNAMGWYRQAPGKERELVAAITNGGRTNYADSVKGRFTISRDNAKNTVYLQMNSLKPEDTAVYYCNKARYGTDDYDYWGQGTQVTVSS", "polyreactivity (PSR sort gate)": "low polyreactivity"}, {"sequence": "QVQLVESGGGLVQAGGSLRLSCAASGSIFGPNAMGWYRQAPGKESELVAAITLSGGSTYYADSVKGRFTISRDNAKNTVYLQMYSLKPEDTAVYYCNADLLPADAPLWVTGGDYWGQGTQVTVTS", "polyreactivity (PSR sort gate)": "low polyreactivity"}, {"sequence": "QVQLVESGGGLVQAGGSLRLSCAASGSIFGPNSMGWYRQAPGKERELVAAISWTGGRTYYADSVKGRFTISRDNAKNTVYLQMNSLKPEDTAVYYCAVKGHPWGQGTQVTVSS", "polyreactivity (PSR sort gate)": "low polyreactivity"}, {"sequence": "QVQLVESGGGLVQAGGSLRLSCAASGSIFGPYAMGWYRQAPGKDRELVAAISLGGGSTSYADSVKGRFTISRDNAKNTVYIQMNSLKPEDTAVYYCNAEYYSGPYGYNGFDYWGQGTQVTVSS", "polyreactivity (PSR sort gate)": "low polyreactivity"}, {"sequence": "QVQLVESGGGLVQAGGSLRLSCAASGSIFGPYAMGWYRQAPGKERELVAAITWTGGRTYYADSVKGRFTISRDNAKNTVYLQMNSLKPVDTAVYDCAADYSPSTWYLYYTLYYYWGEGTQVTVSS", "polyreactivity (PSR sort gate)": "low polyreactivity"}, {"sequence": "QVQLVESGGGLVQAGGSLRLSCAASGSIFGPYAMGWYRQAPGKERELVARITLSAGNTYYADSVKGRFTISRDNAKNTVYLQMNSLKPEDTAVYYCAAKVYSKYWFVGNYWGQGRQVTVSS", "polyreactivity (PSR sort gate)": "high polyreactivity"}, {"sequence": "QVQLVESGGGLVQAGGSLRLSCAASGSIFGPYVMGWYRQAPGKEREFVAAIRGSGGSTYYADSVKGRFTISRDNAKNTVYLQMNSLKPEDTAVYYCNARLKYTLYYYWGQGTQVTVSS", "polyreactivity (PSR sort gate)": "high polyreactivity"}, {"sequence": "QVQLVESGGGLVQAGGSLRLSCAASGSIFGQYAMGCYRQAPGKERELVATISSSGGSTYYADSVKGRFTISRDNAKNTVYLQMNSLKPEDTAVYYCAADWTLDPSYGYYADDYWGQGTQVTVSS", "polyreactivity (PSR sort gate)": "low polyreactivity"}, {"sequence": "QVQLVESGGGLVQAGGSLRLSCAASGSIFGRNAMAWYRQAPGKERELVADIWNGGSTYYADSVNGRFTNSRDNAKNTVYFLMNSLKPEDTAVSYCNADADDDGRFGGYMKYDYWGQGTQVTVSS", "polyreactivity (PSR sort gate)": "low polyreactivity"}, {"sequence": "QVQLVESGGGLVQAGGSLRLSCAASGSIFGRNAMGWSRQAPGNERELVARISYIGGSTYYADSVKARFTISRDNAKTTVYLQMNSLKPEDTAVYYCAKRYGFRYKRMDYWGQGTQVTVSS", "polyreactivity (PSR sort gate)": "low polyreactivity"}, {"sequence": "QVQLVESGGGLVQAGGSLRLSCAASGSIFGRNAMGWYRQAPGKERELVAAISTSGGSTYYADSVKGRFTISRDNAKNTVYLQMNSLKPEDTAVYYCNAEQYTQLDVNLYDYWGQGTQVTVSS", "polyreactivity (PSR sort gate)": "low polyreactivity"}, {"sequence": "QVQLVESGGGLVQAGGSLRLSCAASGSIFGRNDMGWYRQAPGKERELVARITRGGSTNYADSVKGRFTISRDNAKNTVYLQMNSLKPEDTAVYYCAAGARQYRGVPDRYGYWGQGTQVTVSS", "polyreactivity (PSR sort gate)": "low polyreactivity"}, {"sequence": "QVQLVESGGGLVQAGGSLRLSCAASGSIFGRYAMGWYRPAPGKDRELVAAISDDSSTNYADSVKGRFTISRDNAKHNDYLQMHSLKPEVTAVYYCNADSWRYVAEGLWREYDYWGQGTQVTVSS", "polyreactivity (PSR sort gate)": "low polyreactivity"}, {"sequence": "QVQLVESGGGLVQAGGSLRLSCAASGSIFGRYAMGWYRQAPGKERELLAALTYRGGTTYYADSVKGRFTISRDNAKNTVYLQMNSLKPEDTAVYYCAAEGTWYYKYGYFAYYYWGQGTQVTVSS", "polyreactivity (PSR sort gate)": "low polyreactivity"}, {"sequence": "QVQLVESGGGLVQAGGSLRLSCAASGSIFGRYAMGWYRQAPGKERELVAAISSSGGRTYYADSVKGRFTISRDNAKNTVYLKMNSLKPEDTAVYYCNKDWYYLIPGYNYWGQGTQVTVSS", "polyreactivity (PSR sort gate)": "high polyreactivity"}, {"sequence": "QVQLVESGGGLVQAGGSLRLSCAASGSIFGRYAMGWYRQAPGKERELVANITSGDSTNYADSVKGRFTISRDNAKNTVYLQMNSRKPEDTAVYYCAAYRIGQYDYWGQGTQVTVSS", "polyreactivity (PSR sort gate)": "high polyreactivity"}, {"sequence": "QVQLVESGGGLVQAGGSLRLSCAASGSIFGRYAMGWYRQAPGKERELVASISRRCGSTYYADSVKGRFTISRDNAKNTVYLQMNRLKPEDTAVYDCNVAPWSASSANLEDYWGQGNQVTVSS", "polyreactivity (PSR sort gate)": "high polyreactivity"}, {"sequence": "QVQLVESGGGLVQAGGSLRLSCAASGSIFGRYAMGWYRQAPGTEREGVAAISRSCDNTSYADSVKGRFTISRDTAKNTVYLQMNSLKPEDSAVYYCNADRPFSLGQRKYVDFDEPYNYWGQGTQVTVSS", "polyreactivity (PSR sort gate)": "low polyreactivity"}, {"sequence": "QVQLVESGGGLVQAGGSLRLSCAASGSIFGRYAMGWYRQARGKERELVAAISWSGGSTYYADSVKGRFTISRDNAKNTVYLQMNSLKPEDTAVYYCAANYKYAYEYWGQGTQVTVSS", "polyreactivity (PSR sort gate)": "high polyreactivity"}, {"sequence": "QVQLVESGGGLVQAGGSLRLSCAASGSIFGRYVMGWYRQAPGTDRELVAAISGSGTSTYYADSVKGRFTISRDNAKNTVYLQMNSLKPEDTAVYYCAARDIKSSHDYDYWGQGTQVTVSS", "polyreactivity (PSR sort gate)": "low polyreactivity"}, {"sequence": "QVQLVESGGGLVQAGGSLRLSCAASGSIFGSNAMGWYRQAPGKERELVAAITSRGGSTYYADSVKGRFTISRDNAKNTVYLQMNSLKPEDTAVYYCAADYQSVGGAEYDYWGQGTQVTVSS", "polyreactivity (PSR sort gate)": "high polyreactivity"}, {"sequence": "QVQLVESGGGLVQAGGSLRLSCAASGSIFGSNTMGWYRQAPGKEREFVAAISFSGGSTYYADSVKGRFTISRDNAKNTVYLQLNSLKPEDTAVYYWAARQSRVGTSFYYSRRDYWGQGTEVTVSS", "polyreactivity (PSR sort gate)": "high polyreactivity"}, {"sequence": "QVQLVESGGGLVQAGGSLRLSCAASGSIFGSYAMGWNRQAPGKDREFVAGIDQSGSSTYYADSVKGRFTISRDNAKNTVYLQMNSLKPEDTAVYYCAARHRYRTYKMYYWGQGTQVTVSS", "polyreactivity (PSR sort gate)": "high polyreactivity"}, {"sequence": "QVQLVESGGGLVQAGGSLRLSCAASGSIFGSYAMGWYRQAPGKARELVAAISQSGSSTYYADSVKGRFTISRDNAKNTVSLQMNSLKPEDTAVYYCAADWRHLRYRGGLQYDYWGQGTQVTVSS", "polyreactivity (PSR sort gate)": "high polyreactivity"}]}]}
